Source: the Human Domainome abundance scans (Beltran et al. 2025)
± gives the uncertainty stated by the source.

B1: Chromodomain-helicase-DNA-binding protein 5, residues 338 to 390; numbered along this chain, Q8TDI0 (parent)
chain: YETDHQDYCEVCQQGGEIILCDTCPRAYHLVCLDPELEKAPEGKWSCPHCEKE

Variants of: B1
Test: abundance fitness (aPCA) (normalised: wild type 0, dead -1); higher = more abundant; growth selection in yeast, the domain comes from the species named
Conditions: Homo sapiens

Variant	abundance fitness
D22L	-0.059 ± 0.12
D22P	0.111 ± 0.13
D22R	-0.067 ± 0.1
D22C	-0.432 ± 0.15
D22N	-0.015 ± 0.14
D22A	0.149 ± 0.15
D22I	-0.177 ± 0.21
D22E	-0.101 ± 0.2
D22M	-0.185 ± 0.14
D22H	-0.078 ± 0.24
D22T	0.187 ± 0.17
D22K	-0.171 ± 0.19
D22F	-0.597 ± 0.21
D22W	-0.373 ± 0.17
D22S	-0.244 ± 0.12
D22Y	0.088 ± 0.21
Q14N	-0.065 ± 0.17
Q14H	-0.105 ± 0.17
Q14T	0.193 ± 0.14
Q14M	0.084 ± 0.16
Q14Y	-0.001 ± 0.22
Q14G	0.118 ± 0.12
Q14L	-0.011 ± 0.11
Q14A	-0.093 ± 0.17

Variant	abundance fitness
Q14S	0 ± 0.1
Q14C	-0.378 ± 0.12
Q14I	-0.385 ± 0.2
Q14D	-0.004 ± 0.17
Q14P	-1.04 ± 0.23
Q14R	-0.019 ± 0.099
Q14W	-0.237 ± 0.17
Q14F	-0.295 ± 0.14
Q14V	-0.107 ± 0.12
E17M	0.1 ± 0.18
E17K	0.105 ± 0.16
E17Q	-0.377 ± 0.21
E17W	0.188 ± 0.14
E17G	-0.07 ± 0.09
E17S	-0.354 ± 0.13
E17L	-0.096 ± 0.12
E17P	-0.445 ± 0.17
E17F	-0.213 ± 0.18
E17C	-0.105 ± 0.13
E17V	-0.358 ± 0.1
E17N	0.2 ± 0.2
E17T	-0.109 ± 0.19
E17D	-0.182 ± 0.16
E17I	0.227 ± 0.21

Variant	abundance fitness
E17H	-0.435 ± 0.32
E17R	-0.189 ± 0.1
V11P	0.061 ± 0.11
V11N	-0.013 ± 0.14
V11T	0.341 ± 0.11
V11M	0.459 ± 0.11
V11L	0.245 ± 0.093
V11S	0.27 ± 0.09
V11G	0.376 ± 0.094
V11Y	0.033 ± 0.14
V11E	0.397 ± 0.1
V11A	0.095 ± 0.1
V11H	0.691 ± 0.15
V11W	-0.038 ± 0.13
V11C	0.179 ± 0.17
V11D	0.018 ± 0.15
V11K	0.481 ± 0.13
P25M	-0.167 ± 0.2
P25K	0.109 ± 0.21
P25S	-0.1 ± 0.14
P25T	0.057 ± 0.16
P25Y	-0.08 ± 0.34
P25E	-0.287 ± 0.21
P25R	-0.107 ± 0.12

Variant	abundance fitness
P25I	0.064 ± 0.24
P25N	-0.084 ± 0.22
P25W	-0.081 ± 0.16
P25V	-0.124 ± 0.12
P25C	-0.278 ± 0.3
P25G	-0.001 ± 0.11
P25Q	-0.093 ± 0.23
P25L	-0.157 ± 0.13
P25H	-0.833 ± 0.43
T23R	-0.12 ± 0.12
T23P	-0.922 ± 0.22
T23N	0.034 ± 0.17
T23E	0.026 ± 0.17
T23W	-0.443 ± 0.17
T23C	-0.177 ± 0.23
T23K	-0.457 ± 0.22
T23Y	-0.161 ± 0.19
T23M	0.114 ± 0.17
T23A	-0.545 ± 0.13
T23F	0.166 ± 0.16
T23D	-0.09 ± 0.17
T23Q	-0.15 ± 0.2
T23H	-0.397 ± 0.23
T23S	-0.01 ± 0.12

Variant	abundance fitness
T23I	-0.135 ± 0.2
T23L	-0.07 ± 0.12
T23G	-0.305 ± 0.11
G16E	0.027 ± 0.11
G16Q	0.183 ± 0.23
G16S	0.114 ± 0.13
G16V	-0.17 ± 0.1
G16H	0.435 ± 0.22
G16A	-0.037 ± 0.11
G16T	0.265 ± 0.13
G16L	0.239 ± 0.11
G16I	-0.195 ± 0.28
G16N	0.259 ± 0.19
G16M	0.255 ± 0.14
G16Y	0.193 ± 0.2
G16R	0.098 ± 0.1
G16C	-0.336 ± 0.27
G15M	0.143 ± 0.2
G15N	0.116 ± 0.19
G15T	-0.014 ± 0.14
G15P	-0.553 ± 0.19
G15K	0.155 ± 0.16
G15A	0.176 ± 0.13
G15W	-0.136 ± 0.14

Variant	abundance fitness
G15E	-0.112 ± 0.16
G15Q	-0.103 ± 0.15
G15C	0.021 ± 0.14
G15D	-0.167 ± 0.18
G15V	-0.143 ± 0.12
G15I	-0.414 ± 0.39
G15R	0.141 ± 0.09
G15L	-0.209 ± 0.14
G15Y	0.083 ± 0.17
A27F	-0.027 ± 0.14
A27I	-0.021 ± 0.21
A27S	-0.133 ± 0.12
A27W	-0.186 ± 0.17
A27E	-0.55 ± 0.15
A27Y	-0.159 ± 0.24
A27L	-0.204 ± 0.13
A27C	-0.093 ± 0.18
A27D	-0.258 ± 0.17
A27P	-0.231 ± 0.14
A27N	0.048 ± 0.21
A27V	-0.211 ± 0.12
A27T	0.074 ± 0.14
A27Q	0.171 ± 0.19
A27M	-0.29 ± 0.17

Variant	abundance fitness
A27R	-0.086 ± 0.1
A27H	-0.097 ± 0.18
A27K	-0.242 ± 0.21
C12V	-0.759 ± 0.11
C12L	-0.901 ± 0.1
C12Q	-0.79 ± 0.13
C12T	-0.776 ± 0.12
C12A	-0.688 ± 0.11
C12I	-0.912 ± 0.16
C12S	-1.04 ± 0.13
C12Y	-0.891 ± 0.15
C12H	-0.539 ± 0.21
C12F	-0.788 ± 0.15
C12G	-0.752 ± 0.11
C12K	-0.652 ± 0.13
C12R	-1 ± 0.12
C12W	-1.02 ± 0.16
C12P	-0.901 ± 0.13
C12E	-0.866 ± 0.14
C12M	-0.671 ± 0.13
C12N	-0.318 ± 0.2
Q13Y	-0.198 ± 0.16
Q13K	-0.233 ± 0.15
Q13S	0.157 ± 0.094

Variant	abundance fitness
Q13L	-0.109 ± 0.091
Q13F	-0.258 ± 0.15
Q13W	-0.104 ± 0.1
Q13C	-0.076 ± 0.14
Q13N	0.029 ± 0.18
Q13V	0.056 ± 0.096
Q13E	-0.091 ± 0.14
Q13R	0.163 ± 0.085
Q13A	-0.034 ± 0.1
Q13I	-0.204 ± 0.17
Q13P	-0.097 ± 0.14
Q13T	-0.185 ± 0.11
Q13G	0.18 ± 0.084
Q13D	-0.191 ± 0.13
Q13H	-0.268 ± 0.23
Q13M	0.002 ± 0.13
H29W	-0.822 ± 0.17
H29S	-0.882 ± 0.15
H29L	-1.14 ± 0.15
H29N	-0.766 ± 0.32
H29E	-0.736 ± 0.16
H29C	0.053 ± 0.16
H29Q	-0.887 ± 0.2
H29A	-0.5 ± 0.12

Variant	abundance fitness
H29V	-1.1 ± 0.15
H29G	-0.744 ± 0.099
H29K	-0.793 ± 0.17
H29Y	-0.719 ± 0.18
H29M	-0.547 ± 0.17
H29P	-0.672 ± 0.16
H29T	-0.986 ± 0.2
H29F	-1.07 ± 0.39
H29D	-0.451 ± 0.15
I19K	0.315 ± 0.16
I19N	0.161 ± 0.16
I19C	-0.137 ± 0.16
I19L	0.121 ± 0.11
I19D	-0.023 ± 0.15
I19F	0.051 ± 0.22
I19H	0.128 ± 0.19
I19S	-0.104 ± 0.12
I19A	0.109 ± 0.1
I19R	0.115 ± 0.088
I19Y	-0.226 ± 0.2
I19V	-0.085 ± 0.11
I19E	-0.056 ± 0.13
I19Q	0.029 ± 0.15
I19M	0.256 ± 0.13

Variant	abundance fitness
I19P	-1.07 ± 0.21
I19G	-0.177 ± 0.094
I19T	0.303 ± 0.12
R26C	0.012 ± 0.15
R26W	-0.18 ± 0.14
R26G	-0.029 ± 0.089
R26V	-0.207 ± 0.13
R26D	-0.296 ± 0.16
R26F	-0.211 ± 0.17
R26K	0.094 ± 0.17
R26H	0.493 ± 0.19
R26S	0.002 ± 0.1
R26M	0.144 ± 0.14
R26A	0.009 ± 0.13
R26T	-0.436 ± 0.26
R26Q	0.205 ± 0.16
R26L	0.154 ± 0.12
R26P	-0.87 ± 0.23
R26I	-0.059 ± 0.19
R26Y	-0.144 ± 0.19
E10K	0.2 ± 0.12
E10Y	0.209 ± 0.14
E10M	-0.07 ± 0.18
E10T	-0.004 ± 0.14

Variant	abundance fitness
E10R	0.043 ± 0.11
E10Q	0.024 ± 0.13
E10N	0.338 ± 0.18
E10I	0.188 ± 0.18
E10W	0.234 ± 0.14
E10S	-0.112 ± 0.11
E10L	0.175 ± 0.098
Y28E	-0.668 ± 0.19
Y28H	-0.158 ± 0.23
Y28G	-0.125 ± 0.092
Y28S	-0.075 ± 0.12
Y28I	-0.293 ± 0.2
Y28W	-0.098 ± 0.12
Y28C	0.001 ± 0.16
Y28L	-0.148 ± 0.13
Y28M	-0.148 ± 0.16
Y28P	-0.85 ± 0.22
Y28D	-0.713 ± 0.28
Y28V	0.054 ± 0.12
Y28R	0.023 ± 0.096
Y28N	-0.193 ± 0.28
Y28Q	-0.709 ± 0.19
Y28F	-0.315 ± 0.19
Y28A	-0.085 ± 0.14

Variant	abundance fitness
C24L	-0.682 ± 0.13
C24F	-0.567 ± 0.29
C24N	-1.15 ± 0.48
C24V	-0.979 ± 0.16
C24K	-0.917 ± 0.23
C24D	-1.16 ± 0.35
C24I	-0.88 ± 0.35
C24P	-0.437 ± 0.34
C24W	-0.736 ± 0.14
C24Y	-0.784 ± 0.16
C24E	-0.979 ± 0.21
C24M	-0.772 ± 0.2
C24Q	-0.879 ± 0.21
C24S	-0.753 ± 0.13
C24R	-0.804 ± 0.12
C24T	-0.586 ± 0.19
I18T	0.021 ± 0.15
I18W	-0.02 ± 0.12
I18R	0.021 ± 0.1
I18P	-0.228 ± 0.17
I18H	0.03 ± 0.18
I18F	-0.058 ± 0.16
I18L	-0.098 ± 0.1
I18S	0.065 ± 0.11

Variant	abundance fitness
I18N	0.039 ± 0.22
I18V	-0.286 ± 0.12
I18G	0.047 ± 0.097
I18A	0.177 ± 0.12
I18K	0.137 ± 0.22
I18M	0.007 ± 0.14
I18Q	0.28 ± 0.18
I18D	-0.172 ± 0.17
I18Y	0.145 ± 0.18
I18E	-0.454 ± 0.19
I18C	-0.508 ± 0.15
L20S	0.233 ± 0.1
L20P	0.234 ± 0.14
L20H	0.224 ± 0.15
L20N	0.091 ± 0.16
L20Y	0.169 ± 0.15
L20K	0.099 ± 0.14
L20D	0.127 ± 0.17
L20A	0.139 ± 0.12
L20R	0.266 ± 0.092
L20G	0.297 ± 0.087
L20I	-0.095 ± 0.15
L20E	-0.119 ± 0.16
L20T	0.258 ± 0.14

Variant	abundance fitness
L20M	0.371 ± 0.17
L20F	0.078 ± 0.14
L20V	0.051 ± 0.1
L20Q	0.414 ± 0.16
C21L	-0.872 ± 0.15
C21R	-0.929 ± 0.14
C21W	-1.08 ± 0.23
C21N	-0.889 ± 0.27
C21D	-0.921 ± 0.17
C21F	-1.22 ± 0.28
C21P	-0.907 ± 0.2
C21T	-0.995 ± 0.23
C21K	-0.805 ± 0.2
C21A	-0.563 ± 0.14
C21G	-0.853 ± 0.11
C21V	-0.519 ± 0.13
C21Q	-0.973 ± 0.28
C21Y	-0.739 ± 0.17
C21E	-1.08 ± 0.28
C21S	-0.811 ± 0.13
C21M	-0.701 ± 0.18
C21I	-0.912 ± 0.35
